Reference: US20080176814, “DNA-BASED APTAMERS FOR HUMAN CATHEPSIN G” (GENTIUM SPA, published 2008)
Where two headings read alike, the source gives them in different places.

T1: Cathepsin G (Homo sapiens) (UniProt P08311)
T1 sequence: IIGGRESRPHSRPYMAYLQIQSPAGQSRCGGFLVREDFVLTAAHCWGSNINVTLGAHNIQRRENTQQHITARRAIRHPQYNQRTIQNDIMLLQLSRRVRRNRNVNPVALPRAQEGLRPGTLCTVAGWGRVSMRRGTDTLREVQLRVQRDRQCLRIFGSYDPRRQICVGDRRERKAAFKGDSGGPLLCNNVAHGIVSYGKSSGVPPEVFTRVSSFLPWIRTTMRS

T2: Cathepsin G (Homo sapiens, UniProt P08311 P08311:21-244)
T2 sequence: T1 sequence

B1: cmpCG51 (ssDNA)
DNA: ACACGAATACCCTCTGTGCTCAGCGTAACACCCAAGCGTATACCCACATATCACACGTTG
modifications: [NONE]

Experiments:
[1] = molecular target: T1, Cathepsin G (Homo sapiens); conditions: affinity chromatography; same buffer
[2] = molecular target: T1, Cathepsin G (Homo sapiens); experiment: SPR
[3] = molecular target: T1, Cathepsin G (Homo sapiens); conditions: affinity chromatography; same buffer; remark: listed apart in the source
[4] = molecular target: T1, Cathepsin G (Homo sapiens); experiment: SELEX; conditions: cycle 9 yield (0.4% at cycle 1); 30 mM Tris pH 7.5, 150 mM NaCl, 5 mM KCl, 5 mM MgCl2
Cathepsin G [5] = molecular target: T2, Cathepsin G; conditions: affinity chromatography; G-quartet control
Cathepsin G [6] = molecular target: T2, Cathepsin G; experiment: affinity chromatography; same buffer; conditions: tags: Europa Bioproducts or Calbiochem; from human neutrophils (SPR, amine-coupled to CM5 chip)
Experimental: The affinity of the oligonucleotides was determined by affinity chromatography as performed in the selection. Different aliquots of each oligonucleotide were previously incubated with 15 μg of Cathepsin G in ice. The solution was then loaded in the min-chromatography column used for the selection and washed with 15 volumes of buffer IB. After one hour incubation, it was washed with six volumes of buffer EB. Fractions of the same volumes were collected and counted.
We evaluated the oligonucleotide binding to cathepsin G by affinity chromatography in analogy with the selection method. The affinity of the aptamer CG51 was firstly compared with AC and GT oligonucleotides of the same length that, as mentioned, are clearly unable to fold into any structure characterised by Watson-Crick base pairs or G quartets formation. The complementary sequence of CG51, called cmpCG51, was included as a control.

[7] = relative potency vs GT 100, 25 C

Row | Molecule | binding signal [2, 7] | Kd [3] | other results
1 | AC [(AC)30] | – | – | Kd [1]: 0.8 nM
2 | GT [GT 30] | 0.002 | – | –
3 | GT [GT 100] | – | – | binding signal ([2]; relative potency, reference standard, HBS-EP pH 7.4, 25 C): 1
4 | GT [(GT)20 / GT 40] | 0.016 | 1.5 nM | –
5 | AC [AC 40] | 0.0047 | – | –
6 | GT [(GT)30 / GT 60] | 0.144 | – | Kd [1]: 1 nM
7 | GT [(GT)10 / GT 20] | – | 2 nM | –
8 | GT [(GT)40 / GT 80] | 0.32 | 1.2 nM | –
9 | AC [AC 80] | 0.017 | – | –
10 | CGTACGGAATTCGCTAGCNNNNNNNNNNNNNNNNNNNNNNNNNNNNNNNNNNNNNNNNNNNNNNNNNNNNNNNNNNNNGGATCCGAGCTCCACGTG [cycle 9 selected pool] | – | – | binding signal [4]: 42%
11 | THR thrombin aptamer | – | – | Kd (Cathepsin G [5]): 4 nM
12 | AC [(AC)60] | – | 1.2 nM | –
13 | B1 | – | – | Kd (Cathepsin G [6]): 0.6 nM
